The source of these data is the supplement of paper PMC5998384.

For data set [1], the system named is HeLa Kyoto. Kind of data set: melting temperature (median over replicates), in situ; higher = more thermally stable.
In data set [2] the test system is HeLa Kyoto. Kind of data set: solubility in G1/S (NP-40 vs SDS abundance) (log2 ratio); higher = more soluble. The settings on record: cell cycle stage: G1/S.
In data set [3] the test system is HeLa Kyoto. Briefly: solubility change mitosis vs G1/S (difference of NP-40 vs SDS log2 ratios) (log2 ratio difference); higher = more soluble in mitosis.
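Wherever melting temperature (median over replicates), in situ is given: HeLa Kyoto cells synchronized by double thymidine or nocodazole block, proteins quantified by TMT10plex mass spectrometry, three independent biological replicates.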
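Wherever solubility change mitosis vs G1/S (difference of NP-40 vs SDS log2 ratios) is given: synchronized HeLa Kyoto cells (double thymidine block for G1/S, nocodazole release for mitosis), protein amounts in NP-40 versus SDS lysates quantified by mass spectrometry, three biological replicates.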
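Wherever solubility in G1/S (NP-40 vs SDS abundance) is given: HeLa Kyoto cells arrested at G1/S by double thymidine block, proteins quantified by TMT10plex mass spectrometry in mild NP-40 versus SDS extracts, three biological replicates.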

For the sequence “MALFPAFAGLSEAPDGGSSRKELDWLSNPSFCVGSITSLSQQTEAAPAHVSEGLPLTRSHLKSESSDESDTNKKLKQTSRKKKKEKKKKRKHQHHKKTKRKHGPSSSSRSETDTDSEKDKPSRGVGGSKKESEEPNQGNNAAADTGHRFVWLEDIQAVTGETFRTDKKPDPANWEYKSLYRGDIARYKRKGDSCLGINPKKQCISWEGTSTEKKHSRKQVERYFTKKSVGLMNIDGVAISSKTEPPSSEPISFIPVKDLEDAAPVTTWLNPLGIYDQSTTHWLQGQGPPEQESKQPDAQPDSESAALKAKVEEFNRRVRENPRDTQLWMAFVAFQDEVMKSPGLYAIEEGEQEKRKRSLKLILEKKLAILERAIESNQSSVDLKLAKLKLCTEFWEPSTLVKEWQKLIFLHPNNTALWQKYLLFCQSQFSTFSISKIHSLYGKCLSTLSAVKDGSILSHPALPGTEEAMFALFLQQCHFLRQAGHSEKAISLFQAMVDFTFFKPDSVKDLPTKGQVEFFEPFWDSGEPRAGEKGARGWKAWMHQQERGGWVVINPDEDDDEPEEDDQEIKDKTLPRWQIWLAAERSRDQRHWRPWRPDKTKKQTEEDCEDPERQVLFDDIGQSLIRLSSHDLQFQLVEAFLQFLGVPSGFTPPASCLYLAMDENSIFDNGLYDEKPLTFFNPLFSGASCVGRMDRLGYPRWTRGQNREGEEFIRNVFHLVMPLFSGKEKSQLCFSWLQYEIAKVIWCLHTKNKKRLKSQGKNCKKLAKNLLKEPENCNNFCLWKQYAHLEWLLGNTEDARKVFDTALGMAGSRELKDSDLCELSLLYAELEVELSPEVRRAATARAVHILTKLTESSPYGPYTGQVLAVHILKARKAYEHALQDCLGDSCVSNPAPTDSCSRLISLAKCFMLFQYLTIGIDAAVQIYEQVFAKLNSSVFPEGSGEGDSASSQSWTSVLEAITLMHTSLLRFHMKVSVYPLAPLREALSQALKLYPGNQVLWRSYVQIQNKSHSASKTRRFFDTITRSAKPLEPWLFAIEAEKLRKRLVETVQRLDGREIHATIPETGLMHRIQALFENAMRSDSGSQCPLLWRMYLNFLVSLGNKERSKGVFYKALQNCPWAKVLYLDAVEYFPDEMQEILDLMTEKELRVRLPLEELELLLED [NRDE2]”, the melting temperature in the data set on HeLa Kyoto [1] (cell cycle stage: G1/S) was determined as 48.5 °C; in the data set with HeLa Kyoto [1] (cell cycle stage: mitosis) it was 49 °C. The “solubility in G1/S (log2)” value in the data set with HeLa Kyoto [2] was -0.208. Further, the “solubility change mitosis (log2)” value in the data set on HeLa Kyoto [3] was -0.031.

As for “MANSANTNTVPKLYRSVIEDVINDVRDIFLDDGVDEQVLMELKTLWENKLMQSRAVDGFHSEEQQLLLQVQQQHQPQQQQHHHHHHHQQAQPQQTVPQQAQTQQVLIPASQQATAPQVIVPDSKLIQHMNASNMSAAATAATLALPAGVTPVQQILTNSGQLLQVVRAANGAQYIFQPQQSVVLQQQVIPQMQPGGVQAPVIQQVLAPLPGGISPQTGVIIQPQQILFTGNKTQVIPTTVAAPTPAQAQITATGQQQPQAQPAQTQAPLVLQVDGTGDTSSEEDEDEEEDYDDDEEEDKEKDGAEDGQVEEEPLNSEDDVSDEEGQELFDTENVVVCQYDKIHRSKNKWKFHLKDGIMNLNGRDYIFSKAIGDAEW [GTF2A1]”, the melting temperature in the data set on HeLa Kyoto [1] (cell cycle stage: G1/S) was 56.2 °C; in the data set on HeLa Kyoto [1] (cell cycle stage: mitosis), 57.2 °C. In the data set with HeLa Kyoto [2], the “solubility in G1/S (log2)” value is -0.719. In addition, the “solubility change mitosis (log2)” value in the data set with HeLa Kyoto [3] amounted to 0.475.

Turning to “MAQETNHSQVPMLCSTGCGFYGNPRTNGMCSVCYKEHLQRQNSSNGRISPPATSVSSLSESLPVQCTDGSVPEAQSALDSTSSSMQPSPVSNQSLLSESVASSQLDSTSVDKAVPETEDVQASVSDTAQQPSEEQSKSLEKPKQKKNRCFMCRKKVGLTGFECRCGNVYCGVHRYSDVHNCSYNYKADAAEKIRKENPVVVGEKIQKI [ZFAND6]”, the melting temperature with HeLa Kyoto [1] (cell cycle stage: G1/S) was 56.7 °C. The “solubility in G1/S (log2)” value in the data set on HeLa Kyoto [2] was 0.396. The “solubility change mitosis (log2)” value in the data set with HeLa Kyoto [3] was -0.182.

Regarding “MASTGSQASDIDEIFGFFNDGEPPTKKPRKLLPSLKTKKPRELVLVIGTGISAAVAPQVPALKSWKGLIQALLDAAIDFDLLEDEESKKFQKCLHEDKNLVHVAHDLIQKLSPRTSNVRSTFFKDCLYEVFDDLESKMEDSGKQLLQSVLHLMENGALVLTTNFDNLLELYAADQGKQLESLDLTDEKKVLEWAQEKRKLSVLHIHGVYTNPSGIVLHPAGYQNVLRNTEVMREIQKLYENKSFLFLGCGWTVDDTTFQALFLEAVKHKSDLEHFMLVRRGDVDEFKKLRENMLDKGIKVISYGDDYADLPEYFKRLTCEISTRGTSAGMVREGQLNGSSAAHSEIRGCST [FAM118B]”, the figures for the melting temperature in the data set with HeLa Kyoto [1] (cell cycle stage: G1/S) and with HeLa Kyoto [1] (cell cycle stage: mitosis) were 49.3 °C and 50.5 °C, respectively. Moreover, the “solubility in G1/S (log2)” value with HeLa Kyoto [2] turned out to be 0.418. Moreover, the “solubility change mitosis (log2)” value with HeLa Kyoto [3] is -0.123.

Regarding “MAVSGFTLGTCILLLHISYVANYPNGKVTQSCHGMIPEHGHSPQSVPVHDIYVSQMTFRPGDQIEVTLSGHPFKGFLLEARNAEDLNGPPIGSFTLIDSEVSQLLTCEDIQGSAVSHRSASKKTEIKVYWNAPSSAPNHTQFLVTVVEKYKIYWVKIPGPIISQPNAFPFTTPKATVVPLPTLPPVSHLTKPFSASDCGNKKFCIRSPLNCDPEKEASCVFLSFTRDDQSVMVEMSGPSKGYLSFALSHDQWMGDDDAYLCIHEDQTVYIQPSHLTGRSHPVMDSRDTLEDMAWRLADGVMQCSFRRNITLPGVKNRFDLNTSYYIFLADGAANDGRIYKHSQQPLITYEKYDVTDSPKNIGGSHSVLLLKVHGALMFVAWMTTVSIGVLVARFFKPVWSKAFLLGEAAWFQVHRMLMFTTTVLTCIAFVMPFIYRGGWSRHAGYHPYLGCIVMTLAVLQPLLAVFRPPLHDPRRQMFNWTHWSMGTAARIIAVAAMFLGMDLPGLNLPDSWKTYAMTGFVAWHVGTEVVLEVHAYRLSRKVEILDDDRIQILQSFTAVETEGHAFKKAVLAIYVCGNVTFLIIFLSAINHL [FRRS1]”, the melting temperature in the data set on HeLa Kyoto [1] (cell cycle stage: G1/S) is 58.8 °C. The “solubility in G1/S (log2)” value in the data set on HeLa Kyoto [2] amounted to 0.0918. Further, in the data set on HeLa Kyoto [3], the “solubility change mitosis (log2)” value was 0.186.
